Fold change of the dimer band, 100 µM H2O2 against 0 µM H2O2 and fold change of co-precipitated Ref-1, hypoxia against normoxia data for two substances are collected here from article PMC6395885.

Assay [1] concerns the target protein kinase A (PKA) regulatory subunit RI (human (endogenous in HPAEC)) (UniProt P10644). In words: non-reducing SDS-PAGE with Western blot. For orientation: In western blotting, separated proteins are transferred to a membrane and probed.
The target of assay [2] is phosphorylated cAMP response element-binding protein (CREB) (human (endogenous in HPAEC)). Briefly: co-IP.
Sequence of phosphorylated cAMP response element-binding protein (CREB) (human (endogenous in HPAEC)) (P16220 whole entry): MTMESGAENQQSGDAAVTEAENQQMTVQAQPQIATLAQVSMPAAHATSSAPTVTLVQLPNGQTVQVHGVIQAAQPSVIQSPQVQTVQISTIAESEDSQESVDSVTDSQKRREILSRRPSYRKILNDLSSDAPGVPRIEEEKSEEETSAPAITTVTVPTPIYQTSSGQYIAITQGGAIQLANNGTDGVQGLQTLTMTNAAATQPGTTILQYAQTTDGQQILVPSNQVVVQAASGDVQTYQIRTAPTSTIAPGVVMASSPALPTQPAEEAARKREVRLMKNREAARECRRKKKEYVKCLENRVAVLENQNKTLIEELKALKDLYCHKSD

For “protein kinase A (PKA) regulatory subunit RI (from UniProt P10644 1-381) (natural protein)”, the fold change of the dimer band, 100 µM H2O2 against 0 µM H2O2 in assay [1] stood at 3.3 fold.
Turning to “redox factor 1 (Ref-1) (from UniProt P27695 1-318) (natural protein)”, the fold change of co-precipitated Ref-1, hypoxia against normoxia in assay [2] is 1.81 fold.
